B1: variant 5-15 (Fc fusion)
VHH: EVQLVESGGGLVQPGGSLRLSCAASGFTFDGAAMGWFRQAPGKEREFVATIRWTNSTDYADSVKGRFTISADNSKNTAYLQMNSLKPEDTAVYYCARGRYGIVERWGQGTLVTVSS
B2: variant 5-65 (Fc fusion)
VHH: EVQLVESGGGLVQPGGSLRLSCAASGNIDRLYAMGWFRQAPGKEREGVAAIDSDGSTDYADSVKGRFTISADNSKNTAYLQMNSLKPEDTAVYYCAALIDYGLGFPIEWGQGTLVTVSS
B3: variant 5-16 (Fc fusion)
VHH: EVQLVESGGGLVQPGGSLRLSCAASGRTHSIYPMGWFRQAPGKERELVAAIHSGGATVYADSVKGRFTISADNSKNTAYLQMNSLKPEDTAVYYCAARRWIPPGPIWGQGTLVTVSS
B4: variant 5-59 (Fc fusion)
VHH: EVQLVESGGGLVQPGGSLRLSCAASGLTFSLYRMCWFRQAPGKEREEVSCISNIDGSTYYADSVKGRFTISADNSKNTAYLQMNSLKPEDTAVYYCAADLLGDSDYEPSSGFGWGQGTLVTVSS
B5: variant 5-52 (Fc fusion)
VHH: EVQLVESGGGLVQPGGSLRLSCAASGEKFSDHWMGWFRQAPGKEREFVATITFSGARTAYADSVKGRFTISADNSKNTAYLQMNSLKPEDTAVYYCAALIKPSSTDRIFEEWGQGTLVTVSS
B6: variant 6-4 (Fc fusion)
VHH: EVQLVESGGGLVQPGGSLRLSCAASGFTRDYYTMGWFRQAPGKEREFVAAISRSGSLTSYADSVKGRFTISADNSKNTAYLQMNSLKPEDTAVYYCANLAYYDSSGYYDYWGQGTLVTVSS
B7: variant 5-63 (Fc fusion)
VHH: EVQLVESGGGLVQPGGSLRLSCAASGFSLDYYDMGWFRQAPGKEREFVAALGWSGGSTDYADSVKGRFTISADNSKNTAYLQMNSLKPEDTAVYYCAAGNGGRYGIVERWGQGTLVTVSS
B8: variant 5-22 (Fc fusion)
VHH: EVQLVESGGGLVQPGGSLRLSCAASGFTFNVFAMGWFRQAPGKEREFVAAINWSDSRTDYADSVKGRFTISADNSKNTAYLQMNSLKPEDTAVYYCASGSDNRARELSRYEYVWGQGTLVTVSS
B9: variant 5-68 (Fc fusion)
VHH: EVQLVESGGGLVQPGGSLRLSCAASGFTFDHYTMGWFRQAPGKEREFVAAISGSENVTSYADSVKGRFTISADNSKNTAYLQMNSLKPEDTAVYYCAAEPYIPVRTMRHMTFLTWGQGTLVTVSS
B10: variant 5-49 (Fc fusion)
VHH: EVQLVESGGGLVQPGGSLRLSCAASGRTSTVNGMGWFRQAPGKEREFVASISQSGAATAYADSVKGRFTISADNSKNTAYLQMNSLKPEDTAVYYCAADRTYSYSSTGYYWGQGTLVTVSS
B11: variant 5-17 (Fc fusion)
VHH: EVQLVESGGGLVQPGGSLRLSCAASGPTFSIYAMGWFRQAPGKEREFVAGIRWSDVYTQYADSVKGRFTISADNSKNTAYLQMNSLKPEDTAVYYCALDIDYRDWGQGTLVTVSS
B12: variant 5-39 (Fc fusion)
VHH: EVQLVESGGGLVQPGGSLRLSCAASGVTLDLYAMGWFRQAPGKEREFVAGIRWTDAYTEYADSVKGRFTISADNSKNTAYLQMNSLKPEDTAVYYCAVDIDYRDWGQGTLVTVSS
B13: variant 5-37 (Fc fusion)
VHH: EVQLVESGGGLVQPGGSLRLSCAASGSTFSINAMGWFRQAPGKEREFVGGISRSGATTNYADSVKGRFTISADNSKNTAYLQMNSLKPEDTAVYYCAADGVPEYSDYASGPVWGQGTLVTVSS
notes: VHH-Fc
B14: variant 5-21 (Fc fusion)
VHH: EVQLVESGGGLVQPGGSLRLSCAASGGTFTTYHMGWFRQAPGKEREFVAHISTGGATNYADSVKGRFTISADNSKNTAYLQMNSLKPEDTAVYYCATFPAIVTDSDYDLGNDWGQGTLVTVSS
B15: variant 5-64 (Fc fusion)
VHH: EVQLVESGGGLVQPGGSLRLSCAASGTSISNRVMGWFRQAPGKERELVARIYTGGDTLYADSVKGRFTISADNSKNTAYLQMNSLKPEDTAVYYCAARKIYRSLSYYGDYDWGQGTLVTVSS
B16: variant 5-55 (Fc fusion)
VHH: EVQLVESGGGLVQPGGSLRLSCAASGIDVNRNAMGWFRQAPGKEREFVAAITWSGGWRYYADSVKGRFTISADNSKNTAYLQMNSLKPEDTAVYYCATTFGDAGIPDQYDFGWGQGTLVTVSS
B17: variant 6-2 (Fc fusion)
VHH: EVQLVESGGGLVQPGGSLRLSCAASGFTMSSSWMGWFRQAPGKEREFVTVISGVGTSYADSVKGRFTISADNSKNTAYLQMNSLKPEDTAVYYCARGPDSSGYGFDYWGQGTLVTVSS
B18: variant 5-28 (Fc fusion)
VHH: EVQLVESGGGLVQPGGSLRLSCAASGGTFSVFAMGWFRQVPGKERELVAEITAGGSTYYADSVKGRFTISADNSKNTAYLQMNSLKPEDTAVYYCAVDGPFGWGQGTLVTVSS
B19: variant 5-47 (Fc fusion)
VHH: EVQLVESGGGLVQPGGSLRLSCAASGFTFGSYDMGWFRQAPGKEREFVTAINWSGARTAYADSVKGRFTISADNSKNTAYLQMNSLKPEDTAVYYCAARSVYSYEYNWGQGTLVTVSS
B20: variant 5-32 (Fc fusion)
VHH: EVQLVESGGGLVQPGGSLRLSCAASGFTPDNYAMGWFRQAPGKEREFVAALGWSGVTTYHYYADSVKGRFTISADNSKNTAYLQMNSLKPEDTAVYYCASDESDAANWGQGTLVTVSS
B21: variant 5-20 (Fc fusion)
VHH: EVQLVESGGGLVQPGGSLRLSCAASGRTIVPYTMGWFRQAPGKERELVAAISPSAFTEYADSVKGRFTISADNSKNTAYLQMNSLKPEDTAVYYCAARRWGYDWGQGTLVTVSS
notes: VHH-Fc
B22: variant 5-23 (Fc fusion)
VHH: EVQLVESGGGLVQPGGSLRLSCAASGSIFSIDVMGWFRQAPGKEREFVAAISWSGESTLYADSVKGRFTISADNSKNTAYLQMNSLKPEDTAVYYCAAFDGYSGSDWGQGTLVTVSS
B23: variant 5-66 (Fc fusion)
VHH: EVQLVESGGGLVQPGGSLRLSCAASGNTFTINVMGWFRQAPGKEREFVAAINWNGGTTLYADSVKGRFTISADNSKNTAYLQMNSLKPEDTAVYYCAAFDGYSGIDWGQGTLVTVSS
B24: variant 5-3 (Fc fusion)
VHH: EVQLVESGGGLVQPGGSLRLSCAASGSIFSIDVMGWFRQAPGKEREFVAGISWSGDSTLYADSVKGRFTISADNSKNTAYLQMNSLKPEDTAVYYCAAFDGYTGSDWGQGTLVTVSS
B25: variant 5-42 (Fc fusion)
VHH: EVQLVESGGGLVQPGGSLRLSCAASGFTPDDYAMGWFRQAPGKEREFVASIGYSGRSNSYNYYADSVKGRFTISADNSKNTAYLQMNSLKPEDTAVYYCAIAHGSSTYNWGQGTLVTVSS
B26: variant 5-29 (Fc fusion)
VHH: EVQLVESGGGLVQPGGSLRLSCAASGFTFDDYPMGWFRQAPGKEREGVASVLRGGYTWYADSVKGRFTISADNSKNTAYLQMNSLKPEDTAVYYCAKDWATGLAWGQGTLVTVSS
B27: variant 5-13 (Fc fusion)
VHH: EVQLVESGGGLVQPGGSLRLSCAASGFTFDYYTMGWFRQAPGKEREFVAAIRSSGGLFYADSVKGRFTISADNSKNTAYLQMNSLKPEDTAVYYCAAYLDGYSGSWGQGTLVTVSS
B28: variant 5-35 (Fc fusion)
VHH: EVQLVESGGGLVQPGGSLRLSCAASGPTFSIYAMGWFRQAPGKERELVAGISWNGGSTNYADSVKGRFTISADNSKNTAYLQMNSLKPEDTAVYYCALRRRFGGQEWGQGTLVTVSS
B29: variant 6-1 (Fc fusion)
VHH: EVQLVESGGGLVQPGGSLRLSCAASGRTFGNYNMGWFRQAPGKEREFVATINSLGGTSYADSVKGRFTISADNSKNTAYLQMNSLKPEDTAVYYCARVDYYMDVWGQGTLVTVSS
B30: variant 5-67 (Fc fusion)
VHH: EVQLVESGGGLVQPGGSLRLSCAASGFNVNDYAMGWFRQAPGKEREFVAGITSSVGVTNYADSVKGRFTISADNSKNTAYLQMNSLKPEDTAVYYCAADIFFVNWGRGTLVTVSS
B31: variant 5-53 (Fc fusion)
VHH: EVQLVESGGGLVQPGGSLRLSCAASGLTVVPYAMGWFRQAPGKEREFVAAIRRSAVTNYADSVKGRFTIIADNSKNTAYLLMNSLKPEDTAVYYCAARRWGYHYWGQGTLVTVSS
B32: variant 5-60 (Fc fusion)
VHH: EVQLVESGGGLVQPGGSLRLSCAASGRSFSSHRMGWFRQAPGKEREFVAAIMWSGSHRNYADSVKGRFTISADNSKNTAYLQMNSLKPEDTAVYYCAAIAYEEGVYRWDWGQGTLVTVSS
B33: variant 5-27 (Fc fusion)
VHH: EVQLVESGGGLVQPGGSLRLSCAASGRANSINWMGWFRQAPGKEREFVATITPGGNTNYADSVKGRFTISADNSKNTAYLQMNSLKPEDTAVYYCAAAAGSTWYGTLYEYDWGQGTLVTVSS
B34: variant 5-56 (Fc fusion)
VHH: EVQLVESGGGLVQPGGSLRLSCAASGRTFSSNMGWFRQAPGKEREFVARIFGGDRTLYADSVKGRFTISADNSKNTAYLQMNSLKPEDTAVYYCADINGDWGQGTLVTVSS
B35: variant 5-1 (Fc fusion)
VHH: EVQLVESGGGLVQPGGSLRLSCAASGGTFSSIGMGWFRQAPGKEREFVAAISWDGGATAYADSVKGRFTISADNSKNTAYLQMNSLKPEDTAVYYCAKEDVGKPFDWGQGTLVTVSS
notes: VHH-Fc

Molecular target: CV S-protein construct 6 trimer TP31001F (SARS-CoV-2, UniProt P0DTC2 14-1208)
Assay: SPR

First: B1
Second: B2
The Kd of the first is 180-fold lower: 2.3 nM for the first, 421 nM for the second.

Going from B3 to B4, the Kd rises from 1.9 nM to 6.4 nM (3.4-fold).

Going from B5 to B6, the Kd falls from 0.9 nM to 0.5 nM (1.8-fold).

Going from B7 to B8, the Kd rises from 0.4 nM to 7.2 nM (18-fold). The first binds more tightly here.

B9 and B10 are within 1.5-fold of each other in Kd: 4.8 nM for the first, 3.4 nM for the second.

Compared with B11, B12 is 2-fold higher in Kd: 18.9 nM for the first, 37.6 nM for the second. The first binds more tightly here.

First: B13
Second: B14
The Kd of the first is 5.6-fold lower: 1.8 nM for the first, 10 nM for the second.

Going from B15 to B16, the Kd falls from 221 nM to 0.6 nM (370-fold). The second binds more tightly here.

B17 and B18 are within 1.5-fold of each other in Kd: 1.2 nM for the first, 1 nM for the second.

Going from B19 to B20, the Kd falls from 0.7 nM to 0.1 nM (7-fold).

Going from B21 to B22, the Kd rises from 1.1 nM to 4.2 nM (3.8-fold).

Compared with B23, B24 is 18-fold lower in Kd: 98.9 nM for the first, 5.6 nM for the second.

Compared with B25, B26 is 1.7-fold higher in Kd: 0.6 nM for the first, 1 nM for the second. The first binds more tightly here.

Compared with B27, B28 is 4.2-fold higher in Kd: 3.8 nM for the first, 16 nM for the second. The first binds more tightly here.

B29 and B30 are within 1.5-fold of each other in Kd: 1.2 nM for the first, 1 nM for the second.

First: B31
Second: B32
The Kd of the first is 860-fold higher: 684 nM for the first, 0.8 nM for the second.

Going from B33 to B34, the Kd falls from 110 nM to 2.8 nM (39-fold).

B35 showed a Kd of 0.4 nM.
